The values below come from patent EP1914304A1.

For orientation: Km means the concentration of substrate that gives half-maximal velocity.

The series concerns Nc1nc2c(ncn2[C@@H]2O[C@H](COP(=O)(O)O)[C@@H](O)[C@H]2O)c(=O)[nH]1. The series is described as follows: Michaelis-Menten kinetics of guanylate kinase activity. Format: biochemical, murine. The note with it: other: Table X. The source says:
. […] Table X Kinetic Analysis of Fusion Proteins

murine guanylate kinase (gmk), wild-type (Mus musculus), sequence (chain, as listed by the source): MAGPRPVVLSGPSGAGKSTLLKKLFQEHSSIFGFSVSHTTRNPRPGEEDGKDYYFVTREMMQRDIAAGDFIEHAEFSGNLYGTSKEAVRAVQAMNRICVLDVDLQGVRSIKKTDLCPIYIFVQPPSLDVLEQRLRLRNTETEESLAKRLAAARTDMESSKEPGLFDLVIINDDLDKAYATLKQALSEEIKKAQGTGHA

For the substance “murine guanylate kinase (gmk), wild-type (Mus musculus)”, the Km turned out to be 25 µM.
